Test results reported in the supplement of paper PMC7877785.
± gives the uncertainty stated by the source.

Test: self-splicing fitness, log relative to wild type (ln ratio); higher = more splicing; Tetrahymena group I intron in knt gene, E. coli kanamycin selection, DiMSum; sequences stand for … in CUCUCU…GGAGGGAAAAGUUAUCAGGCAUGCACCUGGUAGCUAGUCUUUAAACCAAUAGAUUGCAUCGGUUUAAAAGGCAAGACCGUCAAAUUGCGGGAAAGGGGUCAACAGCCGUUCAGUACCAAGUCUCAGGGGAAACUUUGAGAUGGCCUUGCAAAGGGUAUGGUAAUAAGCUGACGGACAUGGUCCUAACCACGCAGCCAAGUCCUAAGUCAACAGAUCUUCUGUUGAUAUGGAUGCAGUUCACAGACUAAAUGUCGGUCGGGGAAGAUGUAUUCUUCUCAUAAGAUAUAGUCGGACCUCUCCUUAAUGGGAGCUAGCGGAUGAAGUGAUGCAACACUGGAGCCGCUGGGAACUAAUUUGUAUGCGAAAGUAUAUUGAUUAGUUUUGGAGUACUCGUGGUCG
Outline: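 Library with all eight P1ex-region intron nucleotides randomised, intron inside the knt kanamycin-resistance gene on pET-22b(+), in E. coli BL21(DE3). Cells grew overnight at 37°C or 30°C on LB agar with or without 25 μg/mL kanamycin (plus 100 μg/mL carbenicillin, 50 μM IPTG, 0.2% rhamnose), in six replicate transformations. Pooled colonies were amplicon-sequenced on Illumina HiSeq 2500. DiMSum fitness is the error-weighted combination of wild-type-normalised replicate fold changes, kanamycin versus none.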

Row | Sequence | self-splicing fitness (ln) (30 °C) | self-splicing fitness (ln) (37 °C)
1 | ACACAGCAAUAUUACGGGUA | -2.3 ± 0.098 | -1.26 ± 0.074
2 | ACACAGCAAUAUUACGGUAU | -2.59 ± 0.088 | -1.59 ± 0.092
3 | ACACAGCAAUAUUACGGUCU | -0.341 ± 0.05 | 0.298 ± 0.067
4 | ACACAGCAAUAUUACGUAGC | -3.75 ± 0.14 | -2.11 ± 0.12
5 | ACACAGCAAUAUUACGUCCU | -0.17 ± 0.055 | 0.432 ± 0.075
6 | ACACAGCAAUAUUACGUCUA | -1.27 ± 0.072 | -0.282 ± 0.072
7 | ACACAGCAAUAUUACGUGAU | -2.14 ± 0.062 | -1.34 ± 0.086
8 | ACACAGCAAUAUUACGUGGG | -3.5 ± 0.098 | -1.88 ± 0.087
9 | ACACAGCAAUAUUACGUGUA | -3.54 ± 0.11 | -2.06 ± 0.085
10 | ACACAGCAAUAUUACGUGUC | -3.6 ± 0.12 | -3.69 ± 0.2
11 | ACAGAGCAAUAUUACGAAUU | -4.27 ± 0.33 | -1.57 ± 0.2
12 | ACAGAGCAAUAUUACGACAU | -3.246 ± 0.021 | -2.17 ± 0.036
13 | ACAGAGCAAUAUUACGACCA | -0.827 ± 0.21 | –
14 | ACAGAGCAAUAUUACGACGU | -1.31 ± 0.091 | -0.557 ± 0.11
15 | ACAGAGCAAUAUUACGAGAU | -3.23 ± 0.19 | -2.55 ± 0.23
16 | ACAGAGCAAUAUUACGAUCU | -1.68 ± 0.22 | –
17 | ACAGAGCAAUAUUACGCAAA | -2.6 ± 0.34 | -1.42 ± 0.28
18 | ACAGAGCAAUAUUACGCAAG | -3.99 ± 0.39 | -2.33 ± 0.25
19 | ACAGAGCAAUAUUACGCCCU | -3.23 ± 0.23 | -2.02 ± 0.3
20 | ACAGAGCAAUAUUACGCUGU | -3.87 ± 0.42 | -2.69 ± 0.29
21 | ACAGAGCAAUAUUACGGAAG | -3.52 ± 0.22 | -2.12 ± 0.22
22 | ACAGAGCAAUAUUACGGACG | -3.09 ± 0.17 | -0.53 ± 0.33
23 | ACAGAGCAAUAUUACGGAUA | -3.19 ± 0.45 | –
24 | ACAGAGCAAUAUUACGGCCA | -3.47 ± 0.19 | -2.29 ± 0.17

Row | Sequence | self-splicing fitness (ln) (30 °C) | self-splicing fitness (ln) (37 °C)
25 | ACAGAGCAAUAUUACGUAAG | -2.36 ± 0.11 | -1.73 ± 0.14
26 | ACAGAGCAAUAUUACGUACU | -2.96 ± 0.27 | -2.14 ± 0.21
27 | ACAGAGCAAUAUUACGUCUG | -2.35 ± 0.18 | -1.03 ± 0.21
28 | ACAUAGCAAUAUUACGACUC | -0.657 ± 0.086 | -0.29 ± 0.13
29 | ACAUAGCAAUAUUACGAUCA | -1.71 ± 0.087 | -0.779 ± 0.098
30 | ACAUAGCAAUAUUACGAUGU | -3.82 ± 0.16 | -2.19 ± 0.16
31 | ACAUAGCAAUAUUACGCAGA | -2.47 ± 0.14 | -1.74 ± 0.14
32 | ACAUAGCAAUAUUACGCCAA | – | -2.32 ± 0.28
33 | ACAUAGCAAUAUUACGCUCC | -1.62 ± 0.17 | -2.05 ± 0.23
34 | ACAUAGCAAUAUUACGGAAG | -3.57 ± 0.15 | -3.04 ± 0.22
35 | ACAUAGCAAUAUUACGUCCU | -0.372 ± 0.11 | -0.297 ± 0.12
36 | ACAUAGCAAUAUUACGUGAA | -2.13 ± 0.093 | -1.18 ± 0.1
37 | ACAUAGCAAUAUUACGUGGA | -3.3 ± 0.23 | -2.37 ± 0.14
38 | ACAUAGCAAUAUUACGUGUA | -2.68 ± 0.21 | -2.11 ± 0.22
39 | ACAUAGCAAUAUUACGUGUU | -4.04 ± 0.17 | -2.87 ± 0.14
40 | ACCAAGCAAUAUUACGAAGA | -4.11 ± 0.24 | -1.56 ± 0.14
41 | ACCAAGCAAUAUUACGAAGC | -3.94 ± 0.23 | -0.918 ± 0.15
42 | ACCAAGCAAUAUUACGACAG | -1.81 ± 0.078 | -1.82 ± 0.11
43 | ACCAAGCAAUAUUACGACCU | -0.493 ± 0.074 | -0.169 ± 0.087
44 | ACCAAGCAAUAUUACGAGAU | -3.84 ± 0.13 | -2.65 ± 0.16
45 | ACCAAGCAAUAUUACGAGCG | -0.886 ± 0.062 | -1.31 ± 0.081
46 | ACCAAGCAAUAUUACGCCAG | -2.75 ± 0.16 | -1.42 ± 0.18
47 | ACCAAGCAAUAUUACGCUCG | -2.2 ± 0.12 | -1.32 ± 0.13
48 | ACCAAGCAAUAUUACGCUGU | -1.61 ± 0.067 | -0.313 ± 0.074

Row | Sequence | self-splicing fitness (ln) (30 °C) | self-splicing fitness (ln) (37 °C)
49 | ACCAAGCAAUAUUACGGAAG | -3.74 ± 0.17 | -3.14 ± 0.19
50 | ACCAAGCAAUAUUACGGAGU | -3.6 ± 0.098 | -2.25 ± 0.12
51 | ACCAAGCAAUAUUACGGCCC | -0.856 ± 0.11 | 0.112 ± 0.16
52 | ACCAAGCAAUAUUACGGCUC | -2.09 ± 0.07 | -0.63 ± 0.084
53 | ACCAAGCAAUAUUACGGGAC | -4.08 ± 0.14 | -2.05 ± 0.12
54 | ACCAAGCAAUAUUACGUAUG | -3.59 ± 0.13 | -2.53 ± 0.12
55 | ACCAAGCAAUAUUACGUCCC | -2.14 ± 0.12 | -0.924 ± 0.17
56 | ACCAAGCAAUAUUACGUCCG | -1.19 ± 0.072 | -1.19 ± 0.11
57 | ACCAAGCAAUAUUACGUGGC | -3.68 ± 0.18 | -2.94 ± 0.18
58 | ACCAAGCAAUAUUACGUUCC | -3.95 ± 0.16 | -1.37 ± 0.12
59 | ACCAAGCAAUAUUACGUUCG | -1.88 ± 0.07 | -0.644 ± 0.093
60 | ACCAAGCAAUAUUACGUUUC | -4.28 ± 0.17 | -2.55 ± 0.14
61 | ACCCAGCAAUAUUACGAAUU | -1.63 ± 0.075 | -0.951 ± 0.094
62 | ACCCAGCAAUAUUACGACCA | -0.474 ± 0.1 | -0.703 ± 0.14
63 | ACCCAGCAAUAUUACGACUG | -2.87 ± 0.23 | -2.72 ± 0.41
64 | ACCCAGCAAUAUUACGAGAA | -1.61 ± 0.23 | -1.24 ± 0.21
65 | ACCCAGCAAUAUUACGAUCG | -1.92 ± 0.073 | -0.696 ± 0.096
66 | ACCCAGCAAUAUUACGCAGA | -1.02 ± 0.068 | -0.231 ± 0.072
67 | ACCCAGCAAUAUUACGCCAU | -4.24 ± 0.23 | -1.88 ± 0.16
68 | ACCCAGCAAUAUUACGCCUA | -1.15 ± 0.073 | -0.478 ± 0.07
69 | ACCCAGCAAUAUUACGCGAG | -1.63 ± 0.078 | -0.948 ± 0.1
70 | ACCCAGCAAUAUUACGCGGU | -3.41 ± 0.18 | -3.42 ± 0.21
71 | ACCCAGCAAUAUUACGCUCG | -3.65 ± 0.33 | -2.23 ± 0.26
72 | ACCCAGCAAUAUUACGGAAC | -1.91 ± 0.058 | -0.721 ± 0.066

Row | Sequence | self-splicing fitness (ln) (30 °C) | self-splicing fitness (ln) (37 °C)
73 | ACCCAGCAAUAUUACGGAGC | -1.06 ± 0.083 | -0.369 ± 0.1
74 | ACCCAGCAAUAUUACGGAGG | -2.1 ± 0.098 | -1.35 ± 0.12
75 | ACCCAGCAAUAUUACGGAGU | -3.7 ± 0.14 | -1.8 ± 0.1
76 | ACCCAGCAAUAUUACGGCCC | -0.0475 ± 0.11 | -0.539 ± 0.15
77 | ACCCAGCAAUAUUACGGCGC | -0.619 ± 0.062 | 0.132 ± 0.096
78 | ACCCAGCAAUAUUACGGCGG | -2.11 ± 0.08 | -1.04 ± 0.11
79 | ACCCAGCAAUAUUACGGGAA | -0.235 ± 0.044 | -0.102 ± 0.055
80 | ACCCAGCAAUAUUACGGGCA | 0.0145 ± 0.067 | -0.0091 ± 0.077
81 | ACCCAGCAAUAUUACGGGCC | -3.49 ± 0.18 | -1.45 ± 0.14
82 | ACCCAGCAAUAUUACGGUCA | -1.55 ± 0.067 | -0.429 ± 0.069
83 | ACCCAGCAAUAUUACGGUGA | -0.516 ± 0.043 | 0.305 ± 0.059
84 | ACCCAGCAAUAUUACGUACA | -1.85 ± 0.087 | -0.804 ± 0.085
85 | ACCCAGCAAUAUUACGUACC | -1.85 ± 0.12 | -1.63 ± 0.15
86 | ACCCAGCAAUAUUACGUCAU | -1.84 ± 0.049 | -0.414 ± 0.059
87 | ACCCAGCAAUAUUACGUGGU | -3.89 ± 0.11 | -2.76 ± 0.14
88 | ACCCAGCAAUAUUACGUUGC | -2.99 ± 0.089 | -0.989 ± 0.076
89 | ACCCAGCAAUAUUACGUUUC | -2.36 ± 0.062 | -1.35 ± 0.082
90 | ACCGAGCAAUAUUACGACUA | -2.66 ± 0.19 | -1.7 ± 0.17
91 | ACCGAGCAAUAUUACGAGAC | -3.81 ± 0.25 | -2.84 ± 0.4
92 | ACCGAGCAAUAUUACGAGAU | -2.96 ± 0.12 | -2.48 ± 0.18
93 | ACCGAGCAAUAUUACGAUGU | -2.71 ± 0.12 | -1.86 ± 0.12
94 | ACCGAGCAAUAUUACGAUUC | -3.37 ± 0.25 | -3.31 ± 0.31
95 | ACCGAGCAAUAUUACGCCGA | -2.48 ± 0.47 | -2.74 ± 0.38
96 | ACCGAGCAAUAUUACGCCGC | -2.66 ± 0.32 | -2.1 ± 0.29
